Test results as given in patent publication US20210346401.

Legend:
[1] = biological target: HA-tagged MITA (overexpressed in HEK293 cells) (UniProt Q86WV6)
IRF3-Y/F = IRF3-Y/F (UniProt Q14653)
[2] = biological target: HA-tagged RIG-I (overexpressed in HEK293 cells) (UniProt O95786)
[3] = biological target: HA-tagged IRF3 (overexpressed in HEK293 cells) (UniProt Q14653)
[4] = biological target: HA-tagged cGAS (overexpressed in HEK293 cells) (UniProt Q8N884)
[5] = biological target: HA-tagged VISA (overexpressed in HEK293 cells) (UniProt Q7Z434)
MITA-Y/F = MITA-Y/F (UniProt Q86WV6)
VISA-6YF = VISA-6YF (UniProt Q7Z434)
[6] = biological target: HA-tagged TBK1 (overexpressed in HEK293 cells) (UniProt Q9UHD2)
IRF3 (endogenous, MLFs) = IRF3 (endogenous, MLFs) (UniProt P70671)
[7] = biological target: MITA/STING (endogenous, MLFs) (UniProt Q3TBT3)
TBK1 (endogenous, MLFs) = TBK1 (endogenous, MLFs) (UniProt Q9WUN2)
RIG-I (endogenous, MLFs) = RIG-I (endogenous, MLFs) (UniProt Q6Q899)
[8] = biological target: VISA/MAVS (endogenous, MLFs) (UniProt Q8VCF0)
VISA/MAVS (endogenous, MLFs), sequence (Q8VCF0 whole entry): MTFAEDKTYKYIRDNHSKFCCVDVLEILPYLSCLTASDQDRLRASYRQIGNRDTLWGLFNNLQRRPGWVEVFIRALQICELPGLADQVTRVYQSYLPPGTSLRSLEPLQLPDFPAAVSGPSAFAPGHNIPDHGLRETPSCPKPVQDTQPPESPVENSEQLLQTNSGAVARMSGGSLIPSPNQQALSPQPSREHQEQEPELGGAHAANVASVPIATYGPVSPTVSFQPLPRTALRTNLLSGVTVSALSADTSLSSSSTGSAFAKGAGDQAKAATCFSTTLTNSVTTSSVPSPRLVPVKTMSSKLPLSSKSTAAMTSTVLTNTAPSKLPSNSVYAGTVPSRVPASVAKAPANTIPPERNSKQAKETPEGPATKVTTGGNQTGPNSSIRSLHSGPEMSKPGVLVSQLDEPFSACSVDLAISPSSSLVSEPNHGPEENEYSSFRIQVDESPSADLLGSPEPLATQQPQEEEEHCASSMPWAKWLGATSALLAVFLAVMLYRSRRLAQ

MITA/STING (endogenous, MLFs), sequence (Q3TBT3 whole entry): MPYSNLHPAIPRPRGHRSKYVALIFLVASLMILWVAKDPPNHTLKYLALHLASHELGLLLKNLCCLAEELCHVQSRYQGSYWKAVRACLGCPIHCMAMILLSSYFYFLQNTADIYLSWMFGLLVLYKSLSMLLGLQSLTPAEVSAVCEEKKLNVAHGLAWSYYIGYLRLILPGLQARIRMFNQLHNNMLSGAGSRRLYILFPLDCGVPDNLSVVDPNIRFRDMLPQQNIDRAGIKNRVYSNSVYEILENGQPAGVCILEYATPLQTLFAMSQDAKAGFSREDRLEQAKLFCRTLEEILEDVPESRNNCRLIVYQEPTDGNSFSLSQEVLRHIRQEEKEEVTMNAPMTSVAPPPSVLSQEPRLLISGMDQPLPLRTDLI
HA-tagged RIG-I (overexpressed in HEK293 cells), sequence (O95786 whole entry): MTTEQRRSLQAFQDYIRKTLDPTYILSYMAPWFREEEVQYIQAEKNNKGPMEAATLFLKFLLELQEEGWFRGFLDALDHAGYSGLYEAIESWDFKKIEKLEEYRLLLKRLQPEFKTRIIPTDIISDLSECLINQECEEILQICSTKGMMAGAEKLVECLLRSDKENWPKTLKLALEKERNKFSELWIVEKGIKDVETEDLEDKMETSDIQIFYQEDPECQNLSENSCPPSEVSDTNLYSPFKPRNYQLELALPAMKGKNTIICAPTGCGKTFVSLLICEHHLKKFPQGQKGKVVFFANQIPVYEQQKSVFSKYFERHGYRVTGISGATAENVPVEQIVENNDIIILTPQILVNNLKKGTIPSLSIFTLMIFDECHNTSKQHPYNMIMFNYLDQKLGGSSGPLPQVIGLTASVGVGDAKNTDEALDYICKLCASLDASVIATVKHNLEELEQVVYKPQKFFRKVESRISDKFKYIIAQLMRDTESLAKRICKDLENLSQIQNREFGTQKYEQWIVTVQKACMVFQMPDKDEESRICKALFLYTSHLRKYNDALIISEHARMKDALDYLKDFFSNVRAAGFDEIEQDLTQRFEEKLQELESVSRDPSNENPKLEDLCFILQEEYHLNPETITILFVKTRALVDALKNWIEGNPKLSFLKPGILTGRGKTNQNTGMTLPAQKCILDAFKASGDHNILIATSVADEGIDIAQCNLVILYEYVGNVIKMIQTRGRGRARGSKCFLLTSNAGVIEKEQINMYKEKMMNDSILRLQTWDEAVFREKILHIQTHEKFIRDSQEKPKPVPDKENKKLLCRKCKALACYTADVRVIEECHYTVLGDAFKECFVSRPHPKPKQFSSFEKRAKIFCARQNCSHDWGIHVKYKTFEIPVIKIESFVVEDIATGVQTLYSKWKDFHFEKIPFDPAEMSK
HA-tagged IRF3 (overexpressed in HEK293 cells), sequence (Q14653 whole entry): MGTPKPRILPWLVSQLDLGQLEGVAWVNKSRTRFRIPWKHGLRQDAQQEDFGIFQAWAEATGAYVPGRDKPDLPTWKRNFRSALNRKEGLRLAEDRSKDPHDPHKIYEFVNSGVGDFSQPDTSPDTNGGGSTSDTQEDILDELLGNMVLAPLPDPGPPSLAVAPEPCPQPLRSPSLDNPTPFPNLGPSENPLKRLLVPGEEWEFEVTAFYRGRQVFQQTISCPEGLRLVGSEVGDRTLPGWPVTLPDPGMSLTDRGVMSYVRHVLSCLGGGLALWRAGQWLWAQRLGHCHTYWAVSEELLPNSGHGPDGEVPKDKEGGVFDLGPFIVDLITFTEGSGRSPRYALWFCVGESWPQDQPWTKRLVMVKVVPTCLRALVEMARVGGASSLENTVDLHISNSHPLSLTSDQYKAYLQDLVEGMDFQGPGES
RIG-I (endogenous, MLFs), sequence (Q6Q899 whole entry): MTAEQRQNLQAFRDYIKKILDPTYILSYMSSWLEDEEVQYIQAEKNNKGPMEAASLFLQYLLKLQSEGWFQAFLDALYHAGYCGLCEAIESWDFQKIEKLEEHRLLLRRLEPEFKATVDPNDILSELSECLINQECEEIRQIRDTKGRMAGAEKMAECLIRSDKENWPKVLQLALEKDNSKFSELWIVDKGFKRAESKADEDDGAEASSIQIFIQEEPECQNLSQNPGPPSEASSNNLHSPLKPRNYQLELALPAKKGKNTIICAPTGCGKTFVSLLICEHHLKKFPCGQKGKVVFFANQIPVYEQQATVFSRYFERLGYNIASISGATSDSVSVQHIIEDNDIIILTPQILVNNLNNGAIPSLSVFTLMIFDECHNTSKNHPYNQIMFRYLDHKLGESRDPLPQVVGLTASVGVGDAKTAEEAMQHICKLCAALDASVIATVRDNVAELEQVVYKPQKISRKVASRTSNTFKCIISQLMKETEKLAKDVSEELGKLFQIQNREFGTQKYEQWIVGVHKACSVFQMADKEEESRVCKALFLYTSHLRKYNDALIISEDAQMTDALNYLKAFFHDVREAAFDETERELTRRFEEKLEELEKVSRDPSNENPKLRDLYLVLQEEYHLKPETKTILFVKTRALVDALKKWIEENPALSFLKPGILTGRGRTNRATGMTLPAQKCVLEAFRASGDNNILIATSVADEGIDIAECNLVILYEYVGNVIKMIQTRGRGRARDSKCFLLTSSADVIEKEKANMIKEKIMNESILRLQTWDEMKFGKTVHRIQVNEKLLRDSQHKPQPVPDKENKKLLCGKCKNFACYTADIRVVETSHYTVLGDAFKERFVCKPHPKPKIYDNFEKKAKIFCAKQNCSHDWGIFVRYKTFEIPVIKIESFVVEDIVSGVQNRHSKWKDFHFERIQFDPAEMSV
VISA-6YF, sequence (Q7Z434 other isoform, or with tags, fused parts or gaps): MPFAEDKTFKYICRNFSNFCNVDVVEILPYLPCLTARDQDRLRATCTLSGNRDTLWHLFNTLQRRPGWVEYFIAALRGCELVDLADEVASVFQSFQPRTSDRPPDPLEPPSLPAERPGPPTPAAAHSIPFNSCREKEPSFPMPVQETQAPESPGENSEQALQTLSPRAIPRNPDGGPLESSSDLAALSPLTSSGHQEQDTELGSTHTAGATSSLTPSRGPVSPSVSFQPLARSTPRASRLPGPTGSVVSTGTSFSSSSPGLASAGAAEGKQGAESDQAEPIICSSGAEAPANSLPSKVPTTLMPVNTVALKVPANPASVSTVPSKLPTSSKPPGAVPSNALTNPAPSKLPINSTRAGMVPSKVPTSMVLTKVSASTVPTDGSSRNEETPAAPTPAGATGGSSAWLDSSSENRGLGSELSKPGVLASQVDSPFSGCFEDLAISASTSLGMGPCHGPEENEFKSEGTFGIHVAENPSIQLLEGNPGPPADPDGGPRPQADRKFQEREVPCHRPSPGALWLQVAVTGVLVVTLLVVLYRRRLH
HA-tagged TBK1 (overexpressed in HEK293 cells), sequence (Q9UHD2 whole entry): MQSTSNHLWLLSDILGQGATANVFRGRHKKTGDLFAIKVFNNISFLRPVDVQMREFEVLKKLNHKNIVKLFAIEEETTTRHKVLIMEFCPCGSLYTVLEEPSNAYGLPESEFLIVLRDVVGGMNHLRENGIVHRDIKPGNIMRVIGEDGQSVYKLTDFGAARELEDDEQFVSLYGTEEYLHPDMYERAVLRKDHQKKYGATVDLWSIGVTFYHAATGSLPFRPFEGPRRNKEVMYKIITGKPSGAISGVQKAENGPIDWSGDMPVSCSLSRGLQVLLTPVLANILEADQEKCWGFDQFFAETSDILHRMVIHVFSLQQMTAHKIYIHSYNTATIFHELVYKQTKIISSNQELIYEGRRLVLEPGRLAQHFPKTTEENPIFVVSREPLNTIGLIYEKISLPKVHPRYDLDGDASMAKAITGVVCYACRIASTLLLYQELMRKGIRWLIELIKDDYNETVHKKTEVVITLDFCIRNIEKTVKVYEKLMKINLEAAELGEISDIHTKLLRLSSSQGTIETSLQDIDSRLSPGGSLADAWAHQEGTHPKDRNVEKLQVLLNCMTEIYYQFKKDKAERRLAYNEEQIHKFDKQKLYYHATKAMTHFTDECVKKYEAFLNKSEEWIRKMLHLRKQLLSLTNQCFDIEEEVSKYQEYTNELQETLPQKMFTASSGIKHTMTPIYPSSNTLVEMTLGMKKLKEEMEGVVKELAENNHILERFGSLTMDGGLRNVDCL
HA-tagged MITA (overexpressed in HEK293 cells), sequence (Q86WV6 whole entry): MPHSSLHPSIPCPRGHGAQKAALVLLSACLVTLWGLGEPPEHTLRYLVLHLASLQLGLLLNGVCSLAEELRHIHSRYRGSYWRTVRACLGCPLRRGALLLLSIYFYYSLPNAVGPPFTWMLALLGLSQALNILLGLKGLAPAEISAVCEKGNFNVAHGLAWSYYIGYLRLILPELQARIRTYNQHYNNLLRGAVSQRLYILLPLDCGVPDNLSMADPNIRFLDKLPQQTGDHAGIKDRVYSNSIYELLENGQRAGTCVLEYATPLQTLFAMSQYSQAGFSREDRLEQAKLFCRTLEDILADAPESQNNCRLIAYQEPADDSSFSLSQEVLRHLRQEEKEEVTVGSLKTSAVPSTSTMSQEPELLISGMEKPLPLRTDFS
HA-tagged VISA (overexpressed in HEK293 cells), sequence (Q7Z434 whole entry): as the sequence (Q7Z434 other isoform, or with tags, fused parts or gaps) above, with F9Y, F92Y, F95Y, F130Y, F140Y, F460Y counted along it
MITA-Y/F, sequence (Q86WV6 whole entry Y245F): as the sequence (Q86WV6 whole entry) above, with Y245F counted along it
IRF3-Y/F, sequence (Q14653 whole entry Y107F): as the sequence (Q14653 whole entry) above, with Y107F counted along it

Substance | tyrosine phosphorylation (IP with HA antibody, immunoblot) [1] | SRC-mediated tyrosine phosphorylation (IP, immunoblot) (IRF3-Y/F) | tyrosine phosphorylation (IP with HA antibody, immunoblot) [2] | tyrosine phosphorylation (IP with HA antibody, immunoblot) [3] | tyrosine phosphorylation (IP with HA antibody, immunoblot) [4] | tyrosine phosphorylation (IP with HA antibody, immunoblot) [5] | SRC-mediated tyrosine phosphorylation (IP, immunoblot) (MITA-Y/F) | SRC-mediated tyrosine phosphorylation (IP, immunoblot) (VISA-6YF) | tyrosine phosphorylation (IP with HA antibody, immunoblot) [6] | virus-induced tyrosine phosphorylation in SRC-deficient MLFs (IP, immunoblot) (IRF3 (endogenous, MLFs)) | virus-induced tyrosine phosphorylation in SRC-deficient MLFs (IP, immunoblot) [7] | virus-induced tyrosine phosphorylation in SRC-deficient MLFs (IP, immunoblot) (TBK1 (endogenous, MLFs)) | virus-induced tyrosine phosphorylation in SRC-deficient MLFs (IP, immunoblot) (RIG-I (endogenous, MLFs)) | virus-induced tyrosine phosphorylation in SRC-deficient MLFs (IP, immunoblot) [8]
Flag-tagged SRC (overexpressed in HEK293 cells) | overexpression of SRC caused tyrosine phosphorylation of RIG-I, VISA, MITA, TBK1 and IRF3, but not cGAS | Mutation of Y107 of IRF3 to F (IRF3-Y/F) impaired SRC-mediated tyrosine phosphorylation of IRF3 | overexpression of SRC caused tyrosine phosphorylation of RIG-I, VISA, MITA, TBK1 and IRF3, but not cGAS | overexpression of SRC caused tyrosine phosphorylation of RIG-I, VISA, MITA, TBK1 and IRF3, but not cGAS | overexpression of SRC caused tyrosine phosphorylation of RIG-I, VISA, MITA, TBK1 and IRF3, but not cGAS | overexpression of SRC caused tyrosine phosphorylation of RIG-I, VISA, MITA, TBK1 and IRF3, but not cGAS | Mutation of Y245 of MITA to F (MITA-Y/F) abolished SRC-mediated tyrosine phosphorylation of MITA | Simultaneous mutation of Y9, Y92, Y95, Y130, Y140 and Y460 of VISA to F (VISA-6YF) impaired SRC-mediated tyrosine phosphorylation | overexpression of SRC caused tyrosine phosphorylation of RIG-I, VISA, MITA, TBK1 and IRF3, but not cGAS | – | – | – | – | –
SRC (endogenous, MLFs) | – | – | – | – | – | – | – | – | – | SRC-deficiency impaired SeV- or HSV-1-induced tyrosine phosphorylation of endogenous RIG-I, VISA/MAVS, TBK1, IRF3 and MITA/STING | SRC-deficiency impaired SeV- or HSV-1-induced tyrosine phosphorylation of endogenous RIG-I, VISA/MAVS, TBK1, IRF3 and MITA/STING | SRC-deficiency impaired SeV- or HSV-1-induced tyrosine phosphorylation of endogenous RIG-I, VISA/MAVS, TBK1, IRF3 and MITA/STING | SRC-deficiency impaired SeV- or HSV-1-induced tyrosine phosphorylation of endogenous RIG-I, VISA/MAVS, TBK1, IRF3 and MITA/STING | SRC-deficiency impaired SeV- or HSV-1-induced tyrosine phosphorylation of endogenous RIG-I, VISA/MAVS, TBK1, IRF3 and MITA/STING
